{"source": "patent US7691806B2", "about": "“Repeat sequence protein polymer active agent congjugates, methods and uses” (priority 2003, dated 2010)", "test_system": "Human dermal fibroblasts", "assay": "Fibroblast cell survival after UVB exposure (MTT assay)", "type": "cell-based", "settings": "UVB approximately 50 mj/cm^2, treated after exposure, MTT 48 hours later", "description": "Construction, analysis and verification of the SELP47K-P4 (SEQ. ID. NO. 36) conjugate proceeded as follows. SELP constructs in which all polymer subunits contain additional P4 (ALSYP) peptide sequences were made as follows: Artificial gene synthesis was used to create a 2 subunit version of the desired construct in which each identical subunit contains a unique non-palindromic restriction site. Specifically, SELP subunits contained either BBI derived P4 sequences (Seq ALSYP) incorporated in two places per subunit, flanking the silk region, incorporated between the C-terminal end of the silk region and the N-terminal end of the elastin region. A BsgI restriction enzyme cleavage site was designed within each subunit. Gene construction was carried out by Blue Heron Biotechnology (Bothell, Wash.). […] Resulting modified SELP monomers as well as plasmid vector were purified from agarose gels and concentrated using a Spin Vac. Monomers were self ligated using T4 DNA ligase (New England Biolabs) as per manufacturer's instructions overnight at 16 C. Original purified vector was added to ligation mix with additional fresh ligase and incubated at 16 C for an additional 24 hrs. Ligation mix was used to transform E. coli TOP10 cells (Invitrogen) as per manufacturer's instructions. Resulting transformants were used to inoculate culture tubes containing 5 ml Luria broth and appropriate antibiotic. […]"}
{"molecule": "SELP47K-P4 (protein, P4-SELP47K silk, elastin ad UV-protective peptides) MDPVVLQRRDWENPGVTQLNRLAAHPPFASDPMGAGAGSGAGAGSALSYPGVGVPGVGVPGVGVPGVGVPGKGVPGVGVPGVGVPGVGVPALSYPGAGAGSGAGAGSGAGAGSGAGAGSALSYPGVGVPGVGVPGVGVPGVGVPGKGVPGVGVPGVGVPGVGVPALSYPGAGAGSGAGAGSGAGAGSGAGAGSALSYPGVGVPGVGVPGVGVPGVGVPGKGVPGVGVPGVGVPGVGVPALSYPGAGAGSGAGAGSGAGAGSGAGAGSALSYPGVGVPGVGVPGVGVPGVGVPGKGVPGVGVPGVGVPGVGVPALSYPGAGAGSGAGAGSGAGAGSGAGAGSALSYPGVGVPGVGVPGVGVPGVGVPGKGVPGVGVPGVGVPGVGVPALSYPGAGAGSGAGAGSGAGAGSGAGAGSALSYPGVGVPGVGVPGVGVPGVGVPGKGVPGVGVPGVGVPGVGVPALSYPGAGAGSGAGAGSGAGAGSGAGAGSALSYPGVGVPGVGVPGVGVPGVGVPGKGVPGVGVPGVGVPGVGVPALSYPGAGAGSGAGAGSGAGAGSGAGAGSALSYPGVGVPGVGVPGVGVPGVGVPGKGVPGVGVPGVGVPGVGVPALSYPGAGAGSGAGAGSGAGAGSGAGAGSALSYPGVGVPGVGVPGVGVPGVGVPGKGVPGVGVPGVGVPGVGVPALSYPGAGAGSGAGAGSGAGAGSGAGAGSALSYPGVGVPGVGVPGVGVPGVGVPGKGVPGVGVPGVGVPGVGVPALSYPGAGAGSGAGAGSGAGAGSGAGAGSALSYPGVGVPGVGVPGVGVPGVGVPGKGVPGVGVPGVGVPGVGVPALSYPGAGAGSGAGAGSGAGAGSGAGAGSALSYPGVGVPGVGVPGVGVPGVGVPGKGVPGVGVPGVGVPGVGVPALSYPGAGAGSGAGAGSGAGAGSGAGAGSALSYPGVGVPGVGVPGVGVPGVGVPGKGVPGVGVPGVGVPGVGVPALSYPGAGAGSGAGAGSGAGAMDPGRYQDLRSHHHHHH", "values": [{"measurement": "viability improvement of UV treated human fibroblast cells", "result": 100, "unit": "%"}]}
